Measured values reported in patent publication US20160038561A1 (SYNG PHARMACEUTICALS, published 2016).
No end group written: not given here. *: point of attachment. FITC = O=C1OC2(c3ccc(O)cc3Oc3cc(O)ccc32)c2ccc(NC(=S)*)cc21

Biological target: T1, Synuclein-gamma (SNCG) (UniProt O76070 1-127)
T1 construct: Intracellular protein in MCF7-SNCG cells; also called γ-synuclein; gamma synuclein
Assay: co-immunoprecipitation with anti-SNCG antibody from treated MCF7-SNCG cell lysates, western blot with anti-FITC antibody

T1 sequence (O76070 whole entry): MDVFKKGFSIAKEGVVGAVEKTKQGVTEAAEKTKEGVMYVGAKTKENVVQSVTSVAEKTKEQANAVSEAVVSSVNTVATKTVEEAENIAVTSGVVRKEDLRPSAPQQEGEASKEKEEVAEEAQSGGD

B1: FITC tagged GYGRKKRRQRRR (TAT) alone (peptide)
peptide: {FITC}-GYGRKKRRQRRR
notes: Control peptide in the co-immunoprecipitation; also called TAT CTL; control peptide
B1: no binding.
